Assay results reported in article PMC9143231, “Parapoxvirus Interleukin-10 Homologues Vary in Their Receptor Binding, Anti-Inflammatory, and Stimulatory Activities” (Pathogens, 2022).

Assays:
[1] = target: hIL-10R1-Fc chimeric protein (extracellular domain of human IL-10 receptor 1 fused to Fc) (human) (UniProt Q13651); assay: ELISA; competitive displacement ELISA: hIL-10 (400 ng/mL) coated on Maxisorp wells; serially diluted IL-10 preincubated with 300 ng/mL hIL-10R1-Fc in PBS, 0.4% BSA, 0.02% Tween20 at 25 °C for 1 h, then transferred to the coated wells for 1 h at 25 °C; free hIL-10R1-Fc detected with anti-human IgG
[2] = target: hIL-10R1-Fc chimeric protein (extracellular domain of human IL-10 receptor 1 fused to Fc) (human) (UniProt Q13651)
[3] = target: hIL-10R1-Fc chimeric protein (extracellular domain of human IL-10 receptor 1 fused to Fc) (human) (UniProt Q13651); remark: listed apart in the source
[4] = target: Orf virus interleukin-10, FLAG-tagged (Orf virus); assay: non-reducing SDS-PAGE with anti-FLAG Western blot
[5] = target: hIL-10R1-Fc chimeric protein (extracellular domain of human IL-10 receptor 1 fused to Fc) (human) (UniProt Q13651); assay: ELISA; […] (400 ng/mL) […]
[6] = target: Pseudocowpox virus interleukin-10, FLAG-tagged (Pseudocowpox virus); assay: non-reducing SDS-PAGE with anti-FLAG Western blot; purified FLAG-tagged IL-10 mixed with SDS-PAGE sample buffer without DTT, without boiling; bands detected with HRP-conjugated anti-FLAG M2
[7] = target: T1, hIL-10R1-Fc chimeric protein (extracellular domain of human IL-10 receptor 1 fused to Fc) (human, UniProt Q13651 22-235); assay: ELISA; competitive displacement ELISA: hIL-10 (400 ng/mL) coated on Maxisorp wells; serially diluted IL-10 preincubated with 300 ng/mL hIL-10R1-Fc in PBS, 0.4% BSA, 0.02% Tween20 at 25 °C for 1 h, then transferred to the coated wells for 1 h at 25 °C; free hIL-10R1-Fc detected with anti-human IgG; conditions: both partners purified
T1 construct: human interleukin-10 receptor subunit 1 (IL-10R1), extracellular domain; No catalogue number printed; also called soluble hIL-10R1-Fc fusion protein; source: bought: R&D Systems
T1 sequence: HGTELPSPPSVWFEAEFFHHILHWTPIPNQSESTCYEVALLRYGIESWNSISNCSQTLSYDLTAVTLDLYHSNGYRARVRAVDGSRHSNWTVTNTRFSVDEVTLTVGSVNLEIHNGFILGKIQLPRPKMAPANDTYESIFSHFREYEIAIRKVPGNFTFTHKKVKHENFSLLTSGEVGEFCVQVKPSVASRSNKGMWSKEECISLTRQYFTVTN

Red deerpox virus interleukin-10, FLAG-tagged (ligand)
Emax (Δ%) of hIL-10R1-Fc displacement, relative to hIL-10 [1]: 108 Δ% | pIC50 (negative log10 of the IC50) [1]: 9.51 M

Grey sealpox virus interleukin-10, FLAG-tagged (ligand)
Emax (Δ%, relative to hIL-10) of stimulation of murine MC/9 mast cell proliferation (with IL-3 and IL-4), 48 h [2]: 25.8 Δ% | pEC50 (M) of stimulation of murine MC/9 mast cell proliferation (with IL-3 and IL-4), 48 h [2]: 9.3 M (pEC50) | Emax (Δ%, relative to hIL-10) of inhibition of IL-1β production by LTA-stimulated human THP-1 monocytes, 48 h [3]: 25.8 Δ% | Emax (Δ%, relative to hIL-10) of inhibition of IL-8 production by LTA-stimulated human THP-1 monocytes, 24 h (pIC50 ND) [3]: 50.1 Δ% | Emax (Δ%, relative to hIL-10) of inhibition of MCP-1 production by LTA-stimulated human THP-1 monocytes, 24 h (pIC50 ND) [3]: 31 Δ% | pIC50 (M) of inhibition of IL-1β production by LTA-stimulated human THP-1 monocytes, 48 h [3]: 11 M (pIC50)

Orf virus interleukin-10, FLAG-tagged (ligand)
stoichiometry N [4]: 2 | Emax (Δ%) of hIL-10R1-Fc displacement, relative to hIL-10 [5]: 105 Δ% | pIC50 (negative log10 of the IC50) [5]: 9.24 M

Pseudocowpox virus interleukin-10, FLAG-tagged (ligand)
stoichiometry N [6]: 2 | Emax (Δ%) of hIL-10R1-Fc displacement, relative to hIL-10 [1]: 94.6 Δ% | pIC50 (negative log10 of the IC50) [1]: 7.66 M

Bovine papular stomatitis virus interleukin-10, FLAG-tagged (ligand)
Emax (Δ%) of hIL-10R1-Fc displacement, relative to hIL-10 [1]: 98.7 Δ% | pIC50 (negative log10 of the IC50) [1]: 8.72 M

B1: human interleukin-10, FLAG-tagged (ligand, UniProt P22301 19-178, looked up)
chain: SPGQGTQSENSCTHFPGNLPNMLRDLRDAFSRVKTFFQMKDQLDNLLLKESLLEDFKGYLGCQALSEMIQFYLEEVMPQAENQDPDIKAHVNSLGENLKTLRLRLRRCHRFLPCENKSKAVEQVKNAFNKLQEKGIYKAMSEFDIFINYIEAYMTMKIRN
notes: also called hIL-10; human IL-10; not shown: FLAG, C-terminal, kept
Emax (Δ%) of hIL-10R1-Fc displacement, relative to hIL-10 [7]: 100 Δ% | pIC50 (negative log10 of the IC50) [7]: 8.79
